Numbering of substitutions follows the chain as printed. Where no end group is shown, it is not given here. [ ]: non-standard residue; d: D form. AlaP = not defined here
Tests used:
Proteinase 3 = target: T1, Proteinase 3 (Homo sapiens, UniProt P24158); experiment: Protease inhibition assay, second order rate constant kobs/[I] (method of Tian and Tsou); type: biochemical
T1 sequence (P24158 28-248): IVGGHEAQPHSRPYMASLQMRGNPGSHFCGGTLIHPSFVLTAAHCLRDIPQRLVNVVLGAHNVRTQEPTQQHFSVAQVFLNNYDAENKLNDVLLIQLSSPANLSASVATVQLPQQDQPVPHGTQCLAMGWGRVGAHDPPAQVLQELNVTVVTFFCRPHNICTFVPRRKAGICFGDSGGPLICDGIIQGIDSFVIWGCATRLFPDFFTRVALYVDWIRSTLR
Procedure: The compounds of the invention are advantageously selective inhibitors of PR3. […] As described under the Examples below (see PR3 inhibition assay), and as is generally known, efficacy of particular inhibitors against a target protease, for example, recombinant human PR3, is determined by combining the target with a substrate (for example Suc-AanV-SBzI), both in the absence of the inhibitor and in the present of different concentrations of such inhibitor to be tested. Typically, the efficacy of irreversible inhibitors are measured in terms of the second order rate constant of inhibition value (11) or kobs/l. Preferred inhibitors of the invention have typically a kobs/I of more than 10 M^−1s^−1, preferably more than 100 M^−1s^−1, and more preferably of more than […].
The inactivation of proteases by substrate analog inhibitors in the presence of the substrate by competition for the enzyme-binding site, was measured by the method of Tian and Tsou (17). In this system, product formation in the presence of an irreversible inhibitor approaches an asymptote, as described by
log([P∞]−[P])=log [P∞]−0.43A[Y]t
where [P∞] is the concentration of product formed at time approaching infinity, [P] is the concentration of product at time t, [Y] is the inhibitor concentration, and A is the apparent inhibition rate constant in the presence of the substrate. A is given by
where k+0 is the rate constant for association of the inhibitor with the enzyme, K^−1 is the inverted Michaelis constant, and [S] the substrate concentration. The apparent inhibition rate constant A is the slope of a plot of log([P∞]−[P]) against t, to give the second-order rate constant of inhibition k+0

PR3I217R = target: T2, PR3I217R (Homo sapiens, UniProt P24158, I221R); experiment: Residual activity of recombinant PR3 mutant in presence of increasing amounts of compound; type: biochemical
T2 construct: made in house; host or cells: Drosophila S2 cells
T2 sequence (P24158 28-248 I221R limits assumed): T1 sequence (P24158 28-248) with I194R
Procedure: (§1) Recombinant PR3K99L and […] were produced in Drosophila S2 cells using the calcium phosphate method, and stable cell lines were selected using puromycin. Proteins were purified by affinity chromatography on Chelating Sepharose and analyzed by SDS-PAGE. The total protein concentration was determined with a BCA Protein Assay
(§2) Phosphonate inhibitors and their biotinylated and fluorescent derivatives were synthesized, purified and controlled by mass spectrometry as reported. Their purity was checked by HPLC (data not shown). Purified Ac-Asp-Tyr-Asp-Ala^P(O—C6H4-4-Cl)2 (compound 1) and Ac-Pro-Tyr-Asp-Ala^P(O—C6H4-4-Cl)2 (compound 2) were first assayed for their inhibitory properties by measuring the residual activity of the human neutrophil serine proteases PR3, HNE and CatG in the presence of increasing amounts of each compound. We used for this purpose the FRET substrates that we developed previously for each protease (18). An almost complete inhibition of PR3 (1 nM final) was obtained after a 30 min incubation time with 20 μM of compound 1 (FIG. 1) and 0.3 μM of compound 2 (FIG. 2). Recombinant PR3K99L, […], HNE and CatG were used in the same experimental conditions. […] This emphasizes the importance of the S2 and S4 subsites to discriminate between PR3 and HNE specificities. Significant inhibition of HNE was obtained using about 100 times more Ac-Pro-Tyr-Asp-Ala^P(O—C6H4-4-Cl)2 than required to inhibit PR3. […] We confirmed this observation kinetically by measuring the second order rate constants kobs/l by competition experiments between the PR3 substrate and each inhibitor (17). As expected the second order rate constant kobs/l for compound 2 was about 100 times greater than that for compound 1 (see Table 1).

PR3K99L = target: T3, PR3K99L (Homo sapiens, UniProt P24158, K115L); experiment: as above; type: biochemical; details: Lys99 replaced by Leu in S2 subsite
T3 construct: made in house; host or cells: Drosophila S2 cells
T3 sequence (P24158 28-248 K115L limits assumed): T1 sequence (P24158 28-248) with K88L
Procedure: as §1, §2

[1] = Stability of inhibitors in neutrophil lysate (preincubation before adding substrates); type: in vitro ADME, human; details: one hour preincubation of neutrophil lysate-inhibitor mixture
Text: We first studied the stability and the selectivity of compound 1, 2 and their biotinylated derivatives in a lysate of purified human neutrophils. […] Further, PR3 was selectively inactivated in the neutrophil lysate as shown by western blotting using biotinylated inhibitors.

PR3 = target: T4, PR3 (Homo sapiens, UniProt P24158); experiment: Inhibition of protease activity in crude lung secretions of patients (IPF, cystic fibrosis); type: biochemical; details: 30 min incubation, IPF and CF samples
T4 construct: in a lysate of purified human neutrophils; endogenous in cells; host or cells: purified human neutrophils (lysate)
T4 sequence (P24158 28-248): T1 sequence (P24158 28-248)
Procedure: Crude lung secretions of patients with chronic inflammatory disorders associating significant neutrophil recruitment (IPF, Cystic fibrosis) were used as biological material to assay the efficacy of phosphonate inhibitors. We first measured the rate of cleavage of the PR3 substrate in >3 IPF and >3 CF crude samples before and after incubation with compounds 2 and 4 (×μM final). All crude samples cleaved the PR3 substrate in the absence of inhibitor and the cleavage always occurred at the expected bond, i.e. the cleavage bond of PR3, as checked by HPLC. The PR3 concentration was in the 0.1-1 μM range in lung secretions, based on the rate of substrate hydrolysis. […] Further, the rate of PR3 inactivation in a crude biological sample […] that of purified PR3, which means that there is no adverse effect impairing the PR3 inhibition in lung secretions of patients with inflammatory disorders.

Proteinase 3 kobs/[I] (Proteinase 3): 154 ± 3 M⁻¹ s⁻¹ | kobs/I relative to that of compound 1 (Proteinase 3; competition between PR3 substrate and inhibitor): about 100 times | inhibition of the Ile217 to Arg217 PR3 mutant compared with PR3K99L (PR3I217R): more efficient toward this mutant | sensitivity of PR3K99L to inhibition compared with wt PR3 (PR3K99L): far less sensitive to inhibition | hydrolysis of PR3 substrate in crude lung secretions (PR3): total inhibition
Substance: Ac-Pro-Tyr-Asp-Ala^P(O—C6H4-4-Cl)2 (Ac-PYD[AlaP]; not fully specified (C-terminus); printed as Ac-Pro-Tyr-Asp-Ala^P(O—C6H4-4-Cl)2; reading uncertain; also: C-terminal Ala as phosphonate analogue (Ala^P)) [Compound 2]
inhibition potential after preincubation in neutrophil lysate [1]: No loss of the inhibition potential

Source: patent US20160257710A1, “SELECTIVE INHIBITORS OF PROTEINASE 3” (INSERM (INSTITUT NATIONAL DE LA SANTÉ ET LA RECHERCHE …, priority 2013, published 2016)
